The results in this text go back to US20240076389A1 (NATIONAL RESEARCH COUNCIL OF CANADA, published 2024).

Numbering of substitutions follows the chain as printed.

Experiment [1] addresses T1, huTyro3-ECD displayed on yeast (human, UniProt Q06418 41-429).
T1 construct: extracellular domain
T1 sequence (looked up): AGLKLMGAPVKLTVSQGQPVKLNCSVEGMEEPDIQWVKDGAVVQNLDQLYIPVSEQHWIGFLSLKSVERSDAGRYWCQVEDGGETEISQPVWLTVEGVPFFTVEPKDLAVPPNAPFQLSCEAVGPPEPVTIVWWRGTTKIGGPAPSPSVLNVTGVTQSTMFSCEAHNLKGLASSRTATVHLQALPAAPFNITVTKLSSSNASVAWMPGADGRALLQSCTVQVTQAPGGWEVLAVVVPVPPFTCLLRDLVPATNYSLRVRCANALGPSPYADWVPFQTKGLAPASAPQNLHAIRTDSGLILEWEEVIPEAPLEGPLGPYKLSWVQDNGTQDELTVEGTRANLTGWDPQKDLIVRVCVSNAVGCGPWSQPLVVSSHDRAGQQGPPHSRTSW
The experiment is described as follows: yeast surface display ELISA, non-denatured yeast, goat anti-human F(ab')2-HRP. Background: An ELISA detects its analyte on a solid surface through an enzyme-linked reagent.

In experiment [2] the target is T2, cyAXL-ECD displayed on yeast.
T2 construct: extracellular domain; 'cy' read as cynomolgus
The experiment is described as above.

The target in experiment [3] is T3, AXL fragment # 7 (AXL amino acids 135-335, IgL2+FN III-1).
T3 chain: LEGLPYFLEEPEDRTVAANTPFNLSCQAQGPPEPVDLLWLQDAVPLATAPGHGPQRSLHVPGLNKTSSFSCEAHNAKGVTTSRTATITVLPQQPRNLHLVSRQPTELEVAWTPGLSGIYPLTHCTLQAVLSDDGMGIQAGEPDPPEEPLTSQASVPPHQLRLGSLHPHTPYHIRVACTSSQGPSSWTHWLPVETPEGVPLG
The experiment can be described thus: yeast surface display of hAXL fragments (Aga2-HA-(hAXL)-MYC), whole yeast cell ELISA, signal normalised to anti-MYC. The source says: (§1) Epitope mapping. […] The YSD vector (pPNL6) was from The Pacific Northwest National Laboratory, USA.

Experiment [4] concerns the target T4, AXL fragment # 1 (AXL amino acids 135-226, IgL2).
T4 chain: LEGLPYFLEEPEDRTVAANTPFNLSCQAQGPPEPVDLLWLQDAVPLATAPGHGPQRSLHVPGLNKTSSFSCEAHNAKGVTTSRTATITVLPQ
The experiment is described as above.
Text: as §1

Experiment [5] concerns the target T5, AXL fragment # 3 (AXL amino acids 26-138, IgL1).
T5 chain: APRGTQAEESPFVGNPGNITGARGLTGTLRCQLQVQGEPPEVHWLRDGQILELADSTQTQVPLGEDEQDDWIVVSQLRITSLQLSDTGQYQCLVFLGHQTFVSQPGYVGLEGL
The experiment is described as follows: yeast surface display of hAXL fragments, whole yeast cell ELISA, signal normalised to anti-MYC.
Text: as §1

The next experiment has as its target T6, rhMER-ECD (human, UniProt Q12866 21-505).
T6 construct: extracellular domain
T6 sequence (looked up): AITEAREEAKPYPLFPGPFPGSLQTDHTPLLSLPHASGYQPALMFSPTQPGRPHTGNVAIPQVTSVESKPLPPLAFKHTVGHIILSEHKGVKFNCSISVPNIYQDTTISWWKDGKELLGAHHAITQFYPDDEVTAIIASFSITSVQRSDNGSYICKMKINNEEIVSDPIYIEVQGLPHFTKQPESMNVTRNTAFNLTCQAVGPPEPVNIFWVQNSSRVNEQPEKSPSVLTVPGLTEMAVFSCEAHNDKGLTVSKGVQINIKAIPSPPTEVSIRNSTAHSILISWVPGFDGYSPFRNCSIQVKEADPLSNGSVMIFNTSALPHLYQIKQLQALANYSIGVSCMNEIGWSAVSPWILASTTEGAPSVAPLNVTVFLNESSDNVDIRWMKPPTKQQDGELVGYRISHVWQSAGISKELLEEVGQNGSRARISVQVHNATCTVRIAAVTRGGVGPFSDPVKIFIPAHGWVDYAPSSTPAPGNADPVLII
The experiment can be described thus: ELISA, antigen coated at 5 µg/ml, mAb 10 µg/ml. How it is done: (§2) To evaluate the cross-reactivity of the mAb to other members of the TAM receptor tyrosine kinase subfamily, binding of the mAb to rhAXL-ECD, rhMER-ECD, rhTyro-3 and BSA (negative control) was measured by ELISA. 96-w half-area plates (Costar) were coated with 25 μl of rhAXL-ECD, rhMER-ECD, rhTyro-3 or BSA at 5 μg/ml in PBS and incubated overnight at 4° C. Microplates were washed 3 times with PBS, blocked with PBS-BSA 1%, and 25 μl of a 10 μg/ml diluted in PBS-BSA 1% were added and incubated at 37° C., 5% CO₂ for 2 hours. Plates were washed 4 times with PBS-TWEEN™ 20 0.05% and incubated for one hour at 37° C., 5% CO₂ with 25 μl of secondary antibody alkaline phosphatase conjugated F(ab)′2 goat anti-mouse IgG (H+L) (Jackson Immunoresearch) diluted 1/5000 in blocking buffer. After 4 washes with PBS-Tween 20 0.05%, 25 μl of a 1 mg/ml pN PP substrate solution was added and further incubated for one hour at 37° C. OD405 nm measurements were done using a microplate reader (Spectramax 340 PC, Molecular Devices).

A further experiment addresses T7, BSA (UniProt P02769 25-607).
T7 construct: also called BSA (negative control)
The experiment is described as follows: ELISA, antigen coated at 5 µg/ml, mAb 10 µg/ml. As for the experimental part:
as §2

T7 sequence (P02769 25-607 limits assumed): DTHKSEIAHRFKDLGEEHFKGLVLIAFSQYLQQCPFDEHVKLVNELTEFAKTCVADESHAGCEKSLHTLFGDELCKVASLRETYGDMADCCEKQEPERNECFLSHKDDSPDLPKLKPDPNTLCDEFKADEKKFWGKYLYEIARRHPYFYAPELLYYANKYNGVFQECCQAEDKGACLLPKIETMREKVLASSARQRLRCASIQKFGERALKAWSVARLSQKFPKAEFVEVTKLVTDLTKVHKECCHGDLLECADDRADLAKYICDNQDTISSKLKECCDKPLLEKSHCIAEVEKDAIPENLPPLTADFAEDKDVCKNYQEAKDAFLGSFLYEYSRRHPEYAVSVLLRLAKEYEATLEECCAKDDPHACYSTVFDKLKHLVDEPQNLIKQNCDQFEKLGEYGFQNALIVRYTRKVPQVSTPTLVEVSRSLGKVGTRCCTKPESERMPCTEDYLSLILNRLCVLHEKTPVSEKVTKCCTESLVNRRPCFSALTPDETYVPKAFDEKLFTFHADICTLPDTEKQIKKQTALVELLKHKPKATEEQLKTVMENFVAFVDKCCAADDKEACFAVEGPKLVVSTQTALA

B1: NRC-sdAb001-Fc (VHH-human IgG1 Fc fusion) (Fc fusion)
chain: QVKLEESGGGLVQAGGSLRLSCTASASISSFDIMGWYRQAPGKQRELVAAITTLDIANYRDSVKGRFTISRDNAKNTVYLQMDSLKPEDTARYHCAAFQSDQNYWGQGTQVTVSS
notes: VHH fused N-terminally to human IgG1 Fc, made in HEK293 cells; also called NRC-sdAb0001-Fc; NRC-sdAb001-hIgG1; not shown: human IgG1 Fc
As for B1, the “yeast ELISA signal normalized to myc expression level” value was 0.017 in experiment [1] and 0.824 in experiment [2].

B2: F111-3C8 (antibody, V domains shown)
VH: QVQLQQPGAELGKPGTSVKLSCKASGYTFTSYWMHWVKRVPGQGLEWIGNINPNSTSADYNEKFKRKATLTVDKSSSTAYMQLSTLTSEDSAVYYCTRPLMGPYWYFDVWGTGTTVTVSS
VL: QIVLTQSPAIMSASPGEKVTISCSASSSVSYMYWYQQKPGSSPKPWIYRTSNLASGVPARFSGSGSGTSYSLTISSMEAEDAATYYCQQYHNYPPTFGGGTKLEIK
notes: also called F111-3C8-2
Regarding B2, the results for the binding result in experiment [3], in experiment [4] and in experiment [5] were “binds”, “binds” and “no binding”, respectively. In addition, the OD405 nm in the experiment with rhMER-ECD and with BSA was 0 OD405 each time.

B3: F107-10G1 (antibody, V domains shown)
VH: EVNLVESGGGVVKPGASLKLSCEASGFTFSNYGMSWVRQTSDKRLEWVASISGGGGRTYYLDNVKGRFIISRENAKNTLYLQMSSLKSEDTALFYCARGARASYFAMDYWGQGSSVTVSS
VL: VIVMTQSHKFMSTSVGDRVSITCKASQDVTTAVAWYQQKPGQSPKLLIYWASTRHTGVPDRFTGSGSGTDYSLTISNVQTEDLAFYYCQQHFTTPLTFGAGTKLELK
notes: also called F107-10G1-3
For the molecule B3, the OD405 nm with rhMER-ECD and with BSA was 0 OD405 in each case.

B4: hFC-F107-10G1 (antibody, human IgG1, kappa, V domains shown)
VH: B3 VH
VL: VIVMTQSHKFMSTSVGDRVSITCKASQDVTTAVAWYQQKPGQSPKLLIYWASTRHTGVPDRFTGSGSGTDYSLTISNVQTEDLAFYYCQQHFTTPLTFGAGTKLELKR
notes: Chimeric mAb, human IgG1 / human kappa constant regions; also called mAb F107-10G1
As to B4, the “yeast ELISA signal normalized to myc expression level” value in experiment [1] is -0.023; in experiment [2] it was 1.14.

B5: F111-5E9 (antibody, V domains shown)
VH: QIQLVQSGPELKKPGETVKISCKASGYTFTKYGMNWVKQAPGKGLKWMGWINTYTGEPTYADDFKGRFAFSLETSASTAYLQINNLTTEDMVTYFCAKGGYYSNPIYPMDYWGQGTSVTVSS
VL: DIQMTQTTSSLSASLGDRVTISCRASQDINNYLNWYQQKPDGTVKLLIYYISRLHSGVPSRFSGSGSGTDYSLTISNLELEDVATYFCQQGNTLPFTFGSGTKLEIK
notes: also called F111-5E9-2; mAb 5E9
For B5, the binding result is listed as “binds” in experiment [3], “binds” in experiment [4] and “no binding” in experiment [5]. Further, the OD405 nm with rhMER-ECD and with BSA was 0 OD405 throughout.

B6: F107-8D12 (antibody, V domains shown)
VH: QVQLQQPGAELVKPGASVQLSCKASGYTFISFWINWVKQRPGQGLEWMGNIFPGSSSTNYNEKFKSKATLTVDKSSSTAYMQLSSLTSEDSAVYFCARDYYGGSPDYWGQGTTLTVSS
VL: DIVMSQSPSSLAVSAGERVTMSCKSSQSLLNTRTRKNYLAWYQQKPGQSPKLLIYWASTRESGVPDRFTGSGSGTDFTLTISSVQAEDLAVYYCKQSYNLWTFGGGTKLEIK
notes: also called F107-8D12-2; mAb 8D12
As to B6, the OD405 nm with rhMER-ECD and with BSA was 0 OD405 in each case.

B7: F107-7H5 (antibody, V domains shown)
VH: QVQLQQPGAELVKPGASVKLSCKASGYTFTSYWINWVKQRPGQGLEWIGNIYPDSSSTNYNEKFKSKATLTVDKSSTTAYIQFSSLTSEDSAVYYCTRDTYGGSPDYWGQGTTLTVSS
VL: B6 VL with R18K, T32S, N37I, E61Q
notes: also called F107-7H5-2; mAb 7H5
Take B7: the OD405 nm with rhMER-ECD and with BSA was 0 OD405 throughout.
